Assay: yeast display, Sf9 membrane polyspecificity reagent, FACS + sequencing; frameworks hold sequencing errors
Summary of the method: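 After 36–48 hours of galactose induction, yeast (Saccharomyces cerevisiae BJ5465) displaying a synthetic nanobody library were stained at 4 °C for 1 hour with 10% biotinylated, detergent-solubilized Sf9 membrane reagent. Streptavidin microbeads enriched the stained cells before FACS sorting into low and high (top ~1%) gates on anti-HA and streptavidin fluorescence. Each clone's polyreactivity label reflects its gate of origin.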

Sequence: QVQLVESGGGLVHAGGSLRLSCSASGSILKSYAMGWYRQAPGKERDLVAAITYRDGSTYYADSVKGRFTISRDTAKNTVYLQMISLKPEDTAVYYCASEPYWWNVFYPGYNYWGQGNQVTVSS
- polyreactivity (PSR sort gate): high polyreactivity

Sequence: QVQLVESGGGLVQAGGSLRLSCAASGRISPKNAMGWYRQAPGKERELVATIRKIGGRTYYADSVKGRFTISRDNAKNTVYLQMNSLKPEDTAVYYCATDFAQSYYPDRFDYWGQGTQVTVSS
- polyreactivity (PSR sort gate): low polyreactivity

Sequence: QVQLVESGGGLVQAGGRLRLTCAASGYIFDVNAMGWYRHAPGKERELVAAISQRGTRTYYADSVKGRFTISRDNAKNSVYLQMNSLKPEDTAVYFCNRGGWRQYDSWVQGTQVTVSS
- polyreactivity (PSR sort gate): high polyreactivity

Sequence: QVQLVESGGGLVQAGGSLRLSCAASGITFRWYAMGWYRQAPGKERELVAAIRSGSSTYYADSVKGRFTISRDNAKNTVYLQMNSLKPEDPAVYYCNARPWYSWGVDYDYWGQGTQVTVSS
- polyreactivity (PSR sort gate): low polyreactivity

Sequence: QVQLEESGGGLVQAGGSLRLSCAASGRILVKNTMGWYRQAPGKERELVAAITSGGNTYYADSVKGRFTISRDNAKNTVYLQMNSLKPEDTAVYYCNKVSNRSGYYWGQGTQVTVSS
- polyreactivity (PSR sort gate): high polyreactivity

Sequence: QVQLVESGGGLVQAGGSLRLSCASSGLTFKQYAMVWYRQAPGKERELVAAITVSGGDTYYADSVKGRFTISRDNAKNTVYLQMNSLKPEDTAVYYCAAEHFFWGYDYWGQGTQVTVSS
- polyreactivity (PSR sort gate): high polyreactivity

Sequence: QVQLVESGGGLVQAGGSLRLSCAASGIIFPYYAMGWYRQAPGKERELVARITRRGGSTYYADSVKGRFTISRDNAKNTVYLQMNSLKPEDTAVYYCAAYAPYYRTMEYWGQGTQVTLSS
- polyreactivity (PSR sort gate): high polyreactivity

Sequence: QVQLVESGGGLVQAGGSLRLICAASGRTFGPYAMGWYRQAPGKEREFVAAITWRGGRTNYADSVKGRFTISRDNAKNTVYLQMNSLKPEDTAVYYCNAVISPHQWIRGGDSWGQGTQVTVSS
- polyreactivity (PSR sort gate): low polyreactivity

Sequence: QVQLVESGGGIVQAGGSLRLSSAASGRTFYVYTMGWYRQAPGKERELVAAITSGGSTNYADSVKGRFKISRDNAKNTVYLQMNSLKPEDTAVYYCAARFSTVFKRYYYWGQGTQLTVSS
- polyreactivity (PSR sort gate): high polyreactivity

Sequence: QVQLVESGGGLVQAGGSLRLSCAASGSIFTYYAMGWYRQAPGKERELVATITGLGGRTYYADSVKGRFTISRDIAKNTVYLQMNSLKPEDTAVYYCAVVPETRYYYWGHGTQVTVSS
- polyreactivity (PSR sort gate): high polyreactivity

Sequence: QVQLVESGGGLVQAGGSLRLSCAASGRTFGYYAMGWYRQAPGQERELVAAISWSDSGTYYADSVKGRFTISRDNAKNTVYLQMNSLKPEDTAVYYCAKDEPYFVFRDTYDYWGQGTQVTVSS
- polyreactivity (PSR sort gate): high polyreactivity

Sequence: QVQLVESGGGLVQAGGSLRLSCAASGGIFKQYAMGWYRQAPGKERELVAAITWSGGSTYYADSVKGRFTISRDYAKNTVYLQMNSLKPEDTAVYYCAKDYVLFQYVDFQDDDYWGQGTQVTVSS
- polyreactivity (PSR sort gate): low polyreactivity

Sequence: QDQLVESVGGLVQAGGSLRLSCAASGLIFSRNVMGWYRQGPGTERELVAAITRSGGSTYYADSVKGRFTISRDNAKNTVYLQMNSLKPVDTAVYYCAASRFNYVYLLKGDYWGQGTQVTVSS
- polyreactivity (PSR sort gate): high polyreactivity

Sequence: QVQLVESGGGLVQAGGSLRLSCAASGFIFTGYTMGWYRQAPGKERELVARISSGDSTKYADSVKGRFTISRDNAKNNVYLQMNSLKPEDTAVYYCAAYIRNARNGTTYDYWGQGTQVTVSS
- polyreactivity (PSR sort gate): high polyreactivity

Sequence: QVQLVESGAGIVQAGGSLRLSCAASGLTFANYVMGGYRQAPGKERELVAAISRSGGSTYYADSVKGRFTISRDNAKKTVNLQMNCLKPEDTAVYYCAAAAWDPKGSRYDSWGQGTQVSVSS
- polyreactivity (PSR sort gate): low polyreactivity

Sequence: QVQLVESGGGIVQAGGSLRLSCAASGRTYYYYAMGWYRQAPGKETELVASISWSGGSTYYADSVKGRFTISRDNAKNTVYLQMNSLKPEDTAVYYCNAQYHTYRWLYAVYLSGDYWGQGTQVTVSS
- polyreactivity (PSR sort gate): low polyreactivity

Sequence: QVQLVESGGGLVQAGGSLRLSCAASGSIFPSYAMGWYRQAPGKERELVAAISSSGGSTYYADSVKGRFTISRDNAKNTVYLQMNSLKPEDTAVYYCATRYRRWSTVVQDDYWGQGTQVTVSS
- polyreactivity (PSR sort gate): low polyreactivity

Sequence: QVQLVESGGGLVQAGGSLRLSCAASGSTFYVNDMGWYRQAPGKERELVAAITWGVGDTYYADSVKGRFTISRDNAKNTVYLQMNSLKPEDTAVYYCAADTSYYYAYTQMEYWGQGTQVTVSS
- polyreactivity (PSR sort gate): low polyreactivity

Sequence: QVQLVESGAGLVQAGGSLRLSCAASGHTFYYNTMGLYRQAPGKERELVAVISWSGSRTYYADSVKGRFTISRDYAKNTVYLQMNSLKPEDTAVSYCNAVYSHRREYWGEGTQVTVSS
- polyreactivity (PSR sort gate): high polyreactivity

Sequence: QVQLVESGGGLVQAGGSLRLSRAASGFTFPAYTMGWYRQAPGKERELVAAITSSGGNTYYADSVKGRFTISRDNAKHTVYLQMNSLKPEDTAVYYCATVSVRWPSNDHVRYDYWGQGTQVTVSS
- polyreactivity (PSR sort gate): low polyreactivity

Sequence: QVQLVESGGGLVQAGGSLRLSCAASGFTFDGYAMGWYRQAPVKERDLVAAISDSGDSTYYADSVKGRFTISRDNAKNTVYVQMNILKPEDTAVYYCNAEQWQSSEYGEWSKRDYWGQGTQVTVSS
- polyreactivity (PSR sort gate): low polyreactivity

Sequence: QVQLVESGGGLVQAGGSLRLSCAASGFTFARYAMGWYRQAPGKERELVAAITYSGGRTYYADSVKGRFTISRDNAKNTVYLQMNSLKPEDTAVYYCAARLSKRSGYYYWGQGTQVTVSS
- polyreactivity (PSR sort gate): high polyreactivity

Sequence: QDQLVESVVCLVQAGLSLRLSGASSVRIFRYYAMGWYRQAHGKERELVAAINSDGRTYYADSVKGRFTISRDNANNTVYLQMNSLKPEDTAVYYCAADHHSYRYGGYYYWGQGTQVTVAS
- polyreactivity (PSR sort gate): low polyreactivity

Sequence: QVQLVESGGGLVQAGGSLRLSCAASGFTIRSYVMGWYRQAPGKERELVAAIRRSGGSTYYADSVKGRFTISRDNAKNTVYLQMNSLKPEDTAVYYCAVGARWYWSYYWGQGTQVTVSS
- polyreactivity (PSR sort gate): high polyreactivity

Sequence: QVQLVESGGGLVQAGGSLRLSCAASGSTFKSYAMGWYRQAPGKERELVAAISRSGGRTYYADSVKGRFTISRDNAKNTVYLQMNSLKPEDTAVYYCATGVKREGDYWGQGTQVTVSS
- polyreactivity (PSR sort gate): high polyreactivity

Sequence: QVQLVESGGGLVQAGGSLRLSCAASGSTFIFYTMGWYRQAPGKERELVAAITSNGGSTYYADSVKGRFTISRDNAKNTVYFQMNSLKPEDTAVYYCARVDRWRRYRYIFSGYDYWGQGTQVTVSS
- polyreactivity (PSR sort gate): high polyreactivity

Sequence: QVQLVESGGGLVQAGGSLRLSCAASGRTFASYAMGWYRQAPGKERELVASIRYSGGSTHYADSVKGRFTISRDNAKNPVYLQMNSLKPEDTAVYYCNARPKFRTYNYWGQGTQVTVSS
- polyreactivity (PSR sort gate): high polyreactivity

Sequence: QVQLVESGGGLVQAGGSLRLSCAASGRTFYRYAMGWYRQAPGKERELVASITWSGGSTYYADSVKGRFTISRDNAKNTVYLQMNSLKPEDTAVYYCAAISAVTLRGYYYWGQGTQVTVSS
- polyreactivity (PSR sort gate): high polyreactivity

Sequence: QVQLVESGGGLVQAGGSLRLSCAASGSTFRFYAMGWYRQAPGKERELVAAISSGGSTNYADSVKGRFTISRDNAKNTVYLQMNSLKPEDTAVYYCNAEDYNGRQYYHKMDYWGQGTQVTVSS
- polyreactivity (PSR sort gate): high polyreactivity

Sequence: QVQLVESGAGFVQAGGSLRLTCAASGRNLSWYAMGWYRQAPGKEREYVAAITSSGASTYYADSVKGRFTISRDNAKNTVYLQMNSLKPEDTAVYYSNAAWRRVWFNYWGQGTQVTVSS
- polyreactivity (PSR sort gate): high polyreactivity

Sequence: QVQLVESGGGLVQAGGSLRLSCAASGRIFDTNAMGWYRQAPGKERELVAAISSGDTTNYADSVKGRFTISRDNAKNTVYLQMNSLKPEDTAVYYCAVYAISFGWSGWTYEDSWGQGTQVTVSS
- polyreactivity (PSR sort gate): low polyreactivity

Sequence: QVQLVESGGGLVQAGGSLRLSCAASGIIFIHYAMGWYRQAPGKERELVAAITSGGSTNYADSVKGRFTISRDNAKNTVYLQMNSLKPEDTAVYYCNAEPVASYYRVSDYEYWGQGTQVTVSS
- polyreactivity (PSR sort gate): low polyreactivity

Sequence: QVQLVESGGGLVQAGGSLRLSCAASGRTFSVYAMGWYRQAPGKERELVAAINRGGSTNYADSVKGRFTISRDNAKNTVYLQMNSLKPEDTAVYYCAATYYWGRKAGFDYWGQGTQVTVSS
- polyreactivity (PSR sort gate): low polyreactivity

Sequence: QVQLVESGGGLVQAGGSLRLICAASGRNCVYYAMGWYRQAPGKERELVAAITSGDSTYYADSVKGRFTISRDNAKNTVYLQMNSLKPEDTAVYYCAADHYYGSESGGFVIYYYWGQGTQVTVSS
- polyreactivity (PSR sort gate): low polyreactivity

Sequence: QVQLVESGGGLVQAGGSLRLSCAASGRIFQTYAMGWYRQAPGKERELVASISWSGGSTYYADSVKGRFTILRDNAKNTVYLQMNSLKPEDTAVYYCAAVYYSTDYYFWYDYWGQGTQVTVSS
- polyreactivity (PSR sort gate): low polyreactivity

Sequence: QVQLVESGGGLVQAGGSLRLSCAAYGRTIPRYAIGWSRQAPGKQRDFVDSISFSSGSTYYADSVKGRFTISRDNAKNTVYVQMKSMKAEDTAVDYSNDIPGSRYYGYRLYYYWGQGTQVTVSS
- polyreactivity (PSR sort gate): high polyreactivity

Sequence: QVQLVESGGGLVQAGGSLRLSCAASGIIFYYYAMGWYRQAPGKERELVAGISYSGGSTYADSVKGRFTISRDNAKNTVYLQMNSLKPEDTAVYYCASDYDYGGHWYDYWGQGTQVTVSS
- polyreactivity (PSR sort gate): low polyreactivity

Sequence: QVQLVESGGGLVQAGGSLRLSCAASGSTFRGYAMGWYRQAPGKERELVAAITGSGDRTRYADSVKGRFTISRDNAKNTVYIQMNSLKPEDTAVYYCAKFCPHWAYYSWGQGTQVTVSS
- polyreactivity (PSR sort gate): high polyreactivity

Sequence: QVQLVVSGGGLVQAGGSLRLSCAASGFTFGYYAMGWYRQAPGKERELVAAITASGARTYYADSVKGRFTISRDNAKNTVYLQMNSLKPEDTAVYYCAAYTNAYRERWPDYGYWGQGTQVTVSS
- polyreactivity (PSR sort gate): high polyreactivity

Sequence: QVQLVESGGGLVQAGGSLRLSCAASGIIFKVYAMGWYRQAPGKERELVAAISKSGGSTYYADSVKGRFTISRDNAKNTVYLQMNSLNPEDTAVYYCAARDYARYASYYYWGQGTQVTVSS
- polyreactivity (PSR sort gate): high polyreactivity

Sequence: QVQLVESGGGLVQAGGSLRLRCAASGSTFPYNAMGWYRQAPGKERELVAAITSAVGTNYADSVKGRVTISRDNAKNTVYLQMNSLKREDTAVYYCAARYIETPLTVLSLMDYWGQGTQVTVSS
- polyreactivity (PSR sort gate): low polyreactivity

Sequence: QVQLVESGGGLVQAGGSLRLSCAASGSIFFGNAMGWYRQAPGKERELVAAITRRGGSTYYADSVKGRFTISRDNEKNTVYLQMNSLKPEDTAVYYCKAVSKRYGYGYWGLGTQVTVSS
- polyreactivity (PSR sort gate): high polyreactivity

Sequence: QVQLVESGGGLVQAGCSLRLSCAASGRIFYTYAMGWYRQAPAKEREFVAGIRWSGSSTYYADSVMGRFRISRDNAKYTVYFQMLSMKPEDTAVYYCAKRYVWGDKRYWQGYDYWGQGNQVTVSS
- polyreactivity (PSR sort gate): high polyreactivity

— the nanobody polyreactivity screen of Harvey et al. (2022)
